Results as given in PMC6629437 (Cell, 2019).
Numbering of substitutions follows the chain as printed. Names may count otherwise.

B1: rFluA-20 IgG (recombinant FluA-20 IgG) (antibody, V domains shown)
VH: QVQLEESGPGLVKPSETLSLTCSVSGVSVTSDIYYWTWIRQPPGKGLEWIGYIFYNGDTNYNPSLKSRVTMSIDTSKNEFSLRLTSVTAADTAVYFCARGTEDLGYCSSGSCPNHWGQGTLVTVSS
VL: DIVMTQSPSSLSASIGDRVTITCRPSQNIRSFLNWFQHKPGKAPKLLIYAASNLQSGVPSRFSGSGSGTEFTLTIRSLQPEDFATYYCQQSYNTPPTFGQGTKVEIK
B2: rFluA-20 IgG Y49A (L) (antibody, V domains shown)
VH: B1 VH
VL: B1 VL with Y49A
B3: rFluA-20 IgG D98A (H) (antibody, V domains shown)
VH: B1 VH with D103A
VL: B1 VL

Columns and labels:
[1] = biological target: H7 HA of A/Netherlands/219/2003, soluble trimer (Influenza A virus …, UniProt Q6VMK1, strain); experiment: ELISA
[2] = biological target: H5 HA of A/Indonesia/5/2005 (Influenza A virus A/Indonesia/5/2005 …, UniProt A5A5L7, strain); experiment: ELISA

Binder	binding result [1]	binding result [2]
B1	binds	
B2		no binding (tested: 10 μg/mL)
B3		no binding (tested: 10 μg/mL)
